Values quoted from earlier work as cited in article PMC2853182.

Target: Protective antigen (PA) (Bacillus anthracis) (UniProt P13423)

In the case of “CMG2 soluble domain (from UniProt P58335)”, the Kd is given as 2 nM.
